Results on four molecules are retold here after patent publication US20160046724A1 (Novartis, published 2016).

B1: BCMA-Fc antigen (Fc fusion)
chain: AGQCSQNEYFDSLLHACIPCQLRCSSNTPPLTCQRYCNASVTNSVKG
notes: Bought reagent; also called BCMA fc fusion protein; recombinant BCMA-Fc; not shown: Fc region

The target of one assay is T1, BCMA-10 CAR.
T1 construct: also called 139109 Full CAR; EG63-98LB
The experiment in a line: CAR-expressing T cells incubated with recombinant BCMA-Fc; staining of CAR+ cells.

The target in the assay “BCMA-Fc antigen” is B1. The experiment in a line: flow cytometry of CAR-transduced JNL cells stained with BCMA-Fc antigen. How it is done: Jurkat-NFAT-luciferase (JNL) cells transduced with BCMA CAR constructs were evaluated for activation in response to BCMA-expressing target cell lines. Small-scale viral supernatant samples were generated in HEK293T cells for transduction of JNL cells. On Day 3 following transduction, BCMA CAR-transduced JNL cells were incubated with target cells at an effector-to-target (E:T) ratio of 6:1. Target cell lines were: K562-BCMA (engineered to stably express BCMA), K562 (parental line), and BCMA positive multiple myeloma cell lines, NCI-H929 and RPMI 8226. JNL activation was measured using Bright-Glo substrate (Promega) on Day 4. CAR expression on transduced JNL was assessed on Day 7 with BCMA-Fc antigen and Biotin-Protein L reagent (Table 7).

In assay [1] the target is T2, BCMA (recombinant, form not given) (UniProt Q02223 1-54, limits assumed).
T2 construct: also called BCMA substrate; Bio-BCMA
T2 sequence (looked up): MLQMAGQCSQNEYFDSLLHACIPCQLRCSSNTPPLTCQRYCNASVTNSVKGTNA
Briefly: affinity assay, 1:1 binding fit; instrument and sample format not stated.

As to B1, in the assay with BCMA-10 CAR, the binding result is “binds”.

B2: BCMA-15 CAR (other)
chain: EVQLVESGGGLVQPGGSLRLSCAVSGFALSNHGMSWVRRAPGKGLEWVSGIVYSGSTYYAASVKGRFTISRDNSRNTLYLQMNSLRPEDTAIYYCSAHGGESDVWGQGTTVTVSSASGGGGSGGRASGGGGSEIVLTQSPGTLSLSPGERATLSCRASQSIGSSSLAWYQQKPGQAPRLLMYGASSRASGIPDRFSGSGSGTDFTLTISRLEPEDFAVYYCQQYAGSPPFTFGQGTKVEIKTTTPAPRPPTPAPTIASQPLSLRPEACRPAAGGAVHTRGLDFACDIYIWAPLAGTCGVLLLSLVITLYCKRGRKKLLYIFKQPFMRPVQTTQEEDGCSCRFPEEEEGGCELRVKFSRSADAPAYKQGQNQLYNELNLGRREEYDVLDKRRGRDPEMGGKPRRKNPQEGLYNELQKDKMAEAYSEIGMKGERRRGKGHDGLYQGLSTATKDTYDALHMQALPPR
notes: also called 139114 Full CAR; PY43-48LB
Regarding B2, the “% CAR+ (BCMA-Fc detection)” value in the assay with BCMA-Fc antigen turned out to be 36.9%.

B3: BCMA-4NP (sample in the affinity and competition assays) (scFv)
scFv: QVQLVQSGAEVKKPGSSVKVSCKASGGTFSNYWMHWVRQAPGQGLEWMGATYRGHSDTYYNQKFKGRVTITADKSTSTAYMELSSLRSEDTAVYYCARGAIYNGYDVLDNWGQGTLVTVSSGGGGSGGGGSGGGGSGGGGSDIQMTQSPSSLSASVGDRVTITCSASQDISNYLNWYQQKPGKAPKLLIYYTSNLHSGVPSRFSGSGSGTDFTLTISSLQPEDFATYYCQQYRKLPWTFGQGTKLEIKR
notes: also called BCMA-4NP control sample
In the case of B3, in assay [1], the Kd came to 0.1 nM, the koff stood at 0.000172 s⁻¹ and the kon was 1.58e+06 M⁻¹ s⁻¹.

B4: BCMA-4NP tool CAR (other, not shown: a dimerising Fc or GST)
chain: QVQLVQSGAEVKKPGSSVKVSCKASGGTFSNYWMHWVRQAPGQGLEWMGATYRGHSDTYYNQKFKGRVTITADKSTSTAYMELSSLRSEDTAVYYCARGAIYNGYDVLDNWGQGTLVTVSSGGGGSGGGGSGGGGSGGGGSDIQMTQSPSSLSASVGDRVTITCSASQDISNYLNWYQQKPGKAPKLLIYYTSNLHSGVPSRFSGSGSGTDFTLTISSLQPEDFATYYCQQYRKLPWTFGQGTKLEIKR
notes: Tool CAR with humanized murine anti-BCMA scFv (VH and VL from WO2012/163805); also called 126021
For B4, the “% CAR+ (BCMA-Fc detection)” value with BCMA-Fc antigen is 28.3%.
